Test results: US20220025032A1 (Novartis, published 2022)

Assays:
Human BTC [1] = biological target: T1, Human BTC (human, UniProt P35070 32-111); assay: MSD-based inhibition of BTC binding to ErbB4
T1 construct: Soluble human BTC of the Biacore, ELISA, MSD and cell assays; also called human betacellulin; soluble human BTC
T1 sequence: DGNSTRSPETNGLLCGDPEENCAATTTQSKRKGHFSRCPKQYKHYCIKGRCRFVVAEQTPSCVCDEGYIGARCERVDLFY

Human BTC [2] = biological target: T1, Human BTC; assay: cell-based inhibition of BTC binding to ErbB1
Human VEGF165 = biological target: T2, Human VEGF165 (human, UniProt P15692 27-191); assay: competition ELISA: antibody pre-incubated with VEGF-biotin, added to coated VEGFR2
T2 construct: mature; biotinylated in the VEGFR2 ELISAs; also called human VEGF-A; VEGF-A
T2 sequence (P15692 other isoform, or with tags, fused parts or gaps): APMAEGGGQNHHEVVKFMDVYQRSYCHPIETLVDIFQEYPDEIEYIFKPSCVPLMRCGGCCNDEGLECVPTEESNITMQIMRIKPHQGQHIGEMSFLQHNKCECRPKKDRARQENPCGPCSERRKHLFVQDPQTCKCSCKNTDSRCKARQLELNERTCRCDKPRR
Description: The plates were then washed 3 times using 1λTBST. The plates were blocked in 2% BSA diluent (0.1% Tween 20/0.1% TirtonX100) overnight. After blocking, the plates were washed 3 times using TB ST and then the sample mixture was added at 20 μl/well. The sample mixture consisted a final fixed concentration of VEGF-biotin (in-house) at 400 pM and a 15 point 1:2 serial dilution of the antibody starting at 20 nM. The sample mixture was pre-incubated for 1 hour prior to adding to the plate and then incubated for another hour at room temperature on the plate. Afterwards, the plate was washed 3 times using TBST and 20 μl/well of Streptavidin-HRP diluted at 1:5000 was added for an incubation time of 1 hour. The plates were washed 3 times in TBST and then 20 μl/well of TMB substrate was added. TMB is a chromogen that yields a blue color when oxidized. TMB was incubated for 10 minutes until the signal saturated in the no antibody samples, and then 10 μl/well of 2N sulfuric acid was added which then changes the blue color to yellow and this now has a maximum absorbance at 450 nm.

[3] = biological target: T3, membrane-bound human BTC on 293F-hBTC cells (human, UniProt P35070 32-111); assay: flow cytometry on 293F cells with membrane-bound human BTC, anti-human Fab detection; y axis Percent Positive Binding, x axis Antibody concentration (nM)
T3 construct: the transfected construct is not described; also called membrane-anchored BTC
T3 sequence: T1 sequence
Description: After washing the cells, the cells were dissociated using Versene at 37° C. The cells were washed with FACS buffer and plated at 100 μl in a 96 well plate using cells at 1×10⁶ cells/ml. Then 100 μl of a serial dilution of antibodies starting at 50 nM was used. The cells were incubated, washed and then treated with the secondary anti-human Fab-FITC antibody. The antibodies only bound to the cells expressing BTC. After which the cells were washed and analyzed on the Attune Flow Cytometry. All data analysis was carried out using Flow Jo software.
In FIG. 6A, Flow cytometry was used to assess the binding of NVS11 to membrane-bound BTC using an anti-human Fab antibody for detection.

B1: NVS1 (Fab, V domains shown)
VH: QVQLVQSGAEVKKPGSSVKVSCKASGGTFSSYAISWVRQAPGQGLEWMGGIVPWMGEAVYAQKFQGRVTITADESTSTAYMELSSLRSEDTAVYYCARSSSTYGIHAFDYWGQGTLVTVSS
VL: DIQMTQSPSSLSASVGDRVTITCRASQSISNFLNWYQQKPGKAPKLLIYAASNLQSGVPSRFSGSGSGTDFTLTISSLQPEDFATYYCQQYDDFPMTFGQGTKVEIKR
notes: also called Fab NVS1; NVS1 Fab
- MSD-based binding inhibition BTC/ErbB4 (Human BTC [1]): > 90%
- Cell-based binding inhibition BTC/ErbB1 (Human BTC [2]): > 90%
- binding result (Human VEGF165): no binding (tested: 20000 pM)
- EC50 [3]: 133 pM
